Test results published in patent US20110287458A1 (TEXAS A AND M UNIVERSITY SYSTEM, published 2011).

Molecular target: the molecule itself
Assay: native PAGE, self-association
Description: Native polyacrylamide gel electrophoresis (PAGE) was performed by use of the MINI PROTEAN® 3 electrophoresis cell and a discontinuous buffer system (Ornstein-Davis) according to the standard procedures given by the manufacturer (Bio-Rad Laboratories). Using native PAGE, pure canine S100A12 was evaluated in the presence of 0.3 mM Ca²⁺, 3 mM Ca²⁺, 10 mM Ca²⁺, and 10 mM EGTA.

B1: canine S100A12 (other)
chain: TKLEDHLEGIVDVFHRYSARVGHPDTLSKGEMKQLIIRELPNTLKNTKDQATVDKLFQDLDADKDGQVNFNEFISLVSVVLDTSHKNTHK
notes: Purified from canine leukocytes; Runs as a non-covalent homodimer on native PAGE; In the RIA the tracer is 125I-labelled; In serum and fecal extracts it is the native protein; also called calgranulin C; EN-RAGE
B1: binds.
